# Test results as given in patent US20090099029A1, “Methods and substrates for conducting assays” (Invitrogen Corporation, priority 2005, published 2009).
# Test system: kinases of Table 6 on Myelin Basic Protein (MBP)
# Assay: Kinase assay using MBP substrate, ProQ Diamond stain (Table 6)
# Assay type: biochemical
# Settings: kinase printed on MBP-coated slide; 20 uM ATP, 30° C.; ProQ Diamond Microarray Stain; graded Strong/Weak/Negative
# Summary of the method: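 Reactions ran at 30° C. with 20 uM ATP, 4 mM MgCl2 and 5% DMSO in HEPES pH 7.5, inhibitor added or omitted. Kinases had been arrayed onto slide-bound dephosphorylated bovine MBP; phospho-signal read after ProQ Diamond staining.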
row,Molecule,MBP Kinase Activity
1,"MUSK (protein, left off: a dimerising Fc or GST) CCRRRKQWKNKKRESAAVTLTTLPSELLLDRLHPNPMYQRMPLLLNPKLLSLEYPRNNIEYVRDIGEGAFGRVFQARAPGLLPYEPFTMVAVKMLKEEASADMQADFQREAALMAEFDNPNIVKLLGVCAVGKPMCLLFEYMAYGDLNEFLRSMSPHTVCSLSHSDLSMRAQVSSPGPPPLSCAEQLCIARQVAAGMAYLSERKFVHRDLATRNCLVGENMVVKIADFGLSRNIYSADYYKANENDAIPIRWMPPESIFYNRYTTESDVWAYGVVLWEIFSYGLQPYYGMAHEEVIYYVRDGNILSCPENCPVELYNLMRLCWSKLPADRPSFTSIHRILERMCERAEGTVSV",Negative
2,"MERTK (protein, left off: a dimerising Fc or GST) KRVQETKFGNAFTEEDSELVVNYIAKKSFCRRAIELTLHSLGVSEELQNKLEDVVIDRNLLILGKILGEGEFGSVMEGNLKQEDGTSLKVAVKTMKLDNSSQREIEEFLSEAACMKDFSHPNVIRLLGVCIEMSSQGIPKPMVILPFMKYGDLHTYLLYSRLETGPKHIPLQTLLKFMVDIALGMEYLSNRNFLHRDLAARNCMLRDDMTVCVADFGLSKKIYSGDYYRQGRIAKMPVKWIAIESLADRVYTSKSDVWAFGVTMWEIATRGMTPYPGVQNHEMYDYLLHGHRLKQPEDCLDELYEIMYSCWRTDPLDRPTFSVLRLQLEKLLESLPDVRNQADVIYVNTQLLESSEGLAQGSTLAPLDLNIDPDSIIASCTPRAAISVVTAEVHDSKPHEGRYILNGGSEEWEDLTSAPSAAVTAEKNSVLPGERLVRNGVSWSHSSMLPLGSSLPDELLFADDSSEGSEVLM",Strong
3,"PDGFRB (protein, left off: small tags and cut ends) MLWQKKPRYEIRWKVIESVSSDGHEYIYVDPMQLPYDSTWELPRDQLVLGRTLGSGAFGQVVEATAHGLSHSQATMKVAVKMLKSTARSSEKQALMSELKIMSHLGPHLNVVNLLGACTKGGPIYIITEYCRYGDLVDYLHRNKHTFLQHHSDKRRPPSAELYSNALPVGLPLPSHVSLTGESDGGYMDMSKDESVDYVPMLDMKGDVKYADIESSNYMAPYDNYVPSAPERTCRATLINESPVLSYMDLVGFSYQVANGMEFLASKNCVHRDLAARNVLICEGKLVKICDFGLARDIMRDSNYISKGSTFLPLKWMAPESIFNSLYTTLSDVWSFGILLWEIFTLGGTPYPELPMNEQFYNAIKRGYRMAQPAHASDEIYEIMQKCWEEKFEIRPPFSQLVLLLERLLGEGYKKKYQQVDEEFLRSDHPAILRSQARLPGFHGLRSPLDTSSVLYTAVQPNEGDNDYIIPLPDPKPEVADEGPLEGSPSLASSTLNEVNTSSTISCDSPLEPQDEPEPEPQLELQVEPEPELEQLPDSGCPAPRAEAEDSFL",Strong
4,"RET (protein, left off: a dimerising Fc or GST) HCYHKFAHKPPISSAEMTFRRPAQAFPVSYSSSGARRPSLDSMENQVSVDAFKILEDPKWEFPRKNLVLGKTLGEGEFGKVVKATAFHLKGRAGYTTVAVKMLKENASPSELRDLLSEFNVLKQVNHPHVIKLYGACSQDGPLLLIVEYAKYGSLRGFLRESRKVGPGYLGSGGSRNSSSLDHPDERALTMGDLISFAWQISQGMQYLAEMKLVHRDLAARNILVAEGRKMKISDFGLSRDVYEEDSYVKRSQGRIPVKWMAIESLFDHIYTTQSDVWSFGVLLWEIVTLGGNPYPGIPPERLFNLLKTGHRMERPDNCSEEMYRLMLQCWKQEPDKRPVFADISKDLEKMMVKRRDYLDLAASTPSDSLIYDDGLSEEETPLVDCNNAPLPRALPSTWIENKLYGMSDPNWPGESPVPLTRADGTNTGFPRYPNDSVYANWMLSPSAAKLMDTFDS",Strong
5,"KIT (protein, left off: small tags and cut ends) TYKYLQKPMYEVQWKVVEEINGNNYVYIDPTQLPYDHKWEFPRNRLSFGKTLGAGAFGKVVEATAYGLIKSDAAMTVAVKMLKPSAHLTEREALMSELKVLSYLGNHMNIVNLLGACTIGGPTLVITEYCCYGDLLNFLRRKRDSFICSKQEDHAEAALYKNLLHSKESSCSDSTNEYMDMKPGVSYVVPTKADKRRSVRIGSYIERDVTPAIMEDDELALDLEDLLSFSYQVAKGMAFLASKNCIHRDLAARNILLTHGRITKICDFGLARDIKNDSNYVVKGNARLPVKWMAPESIFNCVYTFESDVWSYGIFLWELFSLGSSPYPGMPVDSKFYKMIKEGFRMLSPEHAPAEMYDIMKTCWDADPLKRPTFKQIVQLIEKQISESTNHIYSNLANCSPNRQKPVVDHSVRINSVGSTASSSQPLLVHDDV",Negative
6,"MET (protein, left off: small tags and cut ends) KKRKQIKDLGSELVRYDARVHTPHLDRLVSARSVSPTTEMVSNESVDYRATFPEDQFPNSSQNGSCRQVQYPLTDMSPILTSGDSDISSPLLQNTVHIDLSALNPELVQAVQHVVIGPSSLIVHFNEVIGRGHFGCVYHGTLLDNDGKKIHCAVKSLNRITDIGEVSQFLTEGIIMKDFSHPNVLSLLGICLRSEGSPLVVLPYMKHGDLRNFIRNETHNPTVKDLIGFGLQVAKGMKYLASKKFVHRDLAARNCMLDEKFTVKVADFGLARDMYDKEYYSVHNKTGAKLPVKWMALESLQTQKFTTKSDVWSFGVLLWELMTRGAPPYPDVNTFDITVYLLQGRRLLQPEYCPDPLYEVMLKCWHPKAEMRPSFSELVSRISAIFSTFIGEHYVHVNATYVNVKCVAPYPSLLSSEDNADDEVDTRPASFWETS",Strong
7,"TYRO3 (protein, left off: a dimerising Fc or GST) LRKRRKETRFGQAFDSVMARGEPAVHFRAARSFNRERPERIEATLDSLGISDELKEKLEDVLIPEQQFTLGRMLGKGEFGSVREAQLKQEDGSFVKVAVKMLKADIIASSDIEEFLREAACMKEFDHPHVAKLVGVSLRSRAKGRLPIPMVILPFMKHGDLHAFLLASRIGENPFNLPLQTLIRFMVDIACGMEYLSSRNFIHRDLAARNCMLAEDMTVCVADFGLSRKIYSGDYYRQGCASKLPVKWLALESLADNLYTVQSDVWAFGVTMWEIMTRGQTPYAGIENAEIYNYLIGGNRLKQPPECMEDVYDLMYQCWSADPKQRPSFTCLRMELENILGQLSVLSASQDPLYINIERAEEPTAGGSLELPGRDQPYSGAGDGSGMGAVGGTPSDCRYILTPGGLAEQPGQAEHQPESPLNETQRLLLLQQGLLPHSSC",Strong
8,"ROS1 (protein, left off: a dimerising Fc or GST) HRRLKNQKSAKEGVTVLINEDKELAELRGLAAGVGLANACYAIHTLPTQEEIENLPAFPREKLTLRLLLGSGAFGEVYEGTAVDILGVGSGEIKVAVKTLKKGSTDQEKIEFLKEAHLMSKFNHPNILKQLGVCLLNEPQYIILELMEGGDLLTYLRKARMATFYGPLLTLVDLVDLCVDISKGCVYLERMHFIHRDLAARNCLVSVKDYTSPRIVKIGDFGLARDIYKNDYYRKRGEGLLPVRWMAPESLMDGIFTTQSDVWSFGILIWEILTLGHQPYPAHSNLDVLNYVQTGGRLEPPRNCPDDLWNLMTQCWAQEPDQRPTFHRIQDQLQLFRNFFLNSIYKSRDEANNSGVINESFEGEDGDVICLNSDDIMPVALMETKNREGLNYMVLATECGQGEEKSEGPLGSQESESCGLRKEEKEPHADKDFCQEKQVAYCPSGKPEGLNYACLTHSGYGDGSD",Strong
9,"PDGFRA (protein, left off: a dimerising Fc or GST) KQKPRYEIRWRVIESISPDGHEYIYVDPMQLPYDSRWEFPRDGLVLGRVLGSGAFGKVVEGTAYGLSRSQPVMKVAVKMLKPTARSSEKQALMSELKIMTHLGPHLNIVNLLGACTKSGPIYIITEYCFYGDLVNYLHKNRDSFLSHHPEKPKKELDIFGLNPADESTRSYVILSFENNGDYMDMKQADTTQYVPMLERKEVSKYSDIQRSLYDRPASYKKKSMLDSEVKNLLSDDNSEGLTLLDLLSFTYQVARGMEFLASKNCVHRDLAARNVLLAQGKIVKICDFGLARDIMHDSNYVSKGSTFLPVKWMAPESIFDNLYTTLSDVWSYGILLWEIFSLGGTPYPGMMVDSTFYNKIKSGYRMAKPDHATSEVYEIMVKCWNSEPEKRPSFYHLSEIVENLLPGQYKKSYEKIHLDFLKSDHPAVARMRVDSDNAYIGVTYKNEEDKLKDWEGGLDEQRLSADSGYIIPLPDIDPVPEEEDLGKRNRHSSQTSEESAIETGSSSSTFIKREDETIEDIDMMDDIGIDSSDLVEDSFL",Strong
10,"PDGFRA, T674I (protein, left off: a dimerising Fc or GST) KQKPRYEIRWRVIESISPDGHEYIYVDPMQLPYDSRWEFPRDGLVLGRVLGSGAFGKVVEGTAYGLSRSQPVMKVAVKMLKPTARSSEKQALMSELKIMTHLGPHLNIVNLLGACTKSGPIYIIIEYCFYGDLVNYLHKNRDSFLSHHPEKPKKELDIFGLNPADESTRSYVILSFENNGDYMDMKQADTTQYVPMLERKEVSKYSDIQRSLYDRPASYKKKSMLDSEVKNLLSDDNSEGLTLLDLLSFTYQVARGMEFLASKNCVHRDLAARNVLLAQGKIVKICDFGLARDIMHDSNYVSKGSTFLPVKWMAPESIFDNLYTTLSDVWSYGILLWEIFSLGGTPYPGMMVDSTFYNKIKSGYRMAKPDHATSEVYEIMVKCWNSEPEKRPSFYHLSEIVENLLPGQYKKSYEKIHLDFLKSDHPAVARMRVDSDNAYIGVTYKNEEDKLKDWEGGLDEQRLSADSGYIIPLPDIDPVPEEEDLGKRNRHSSQTSEESAIETGSSSSTFIKREDETIEDIDMMDDIGIDSSDLVEDSFL",Negative
